The results in this text go back to ChEMBL document CHEMBL5257037, “Side Chain Cyclized Aromatic Amino Acids: Great Tools as Local Constraints in Peptide and Peptidomimetic Design” (J Med Chem, 2016).

Substrate in the data set: CC[C@H](C)[C@H](NC(=O)[C@H](Cc1cnc[nH]1)NC(=O)[C@H](Cc1ccccc1)NC(=O)OCc1ccccc1)C(=O)O
Put plainly: Binding affinity to angiotensin-converting enzyme (unknown origin) assessed as Km. The following applies: Homo sapiens.

B1: Angiotensin-converting enzyme (Homo sapiens), P12821 (protein)
chain: MGAASGRRGPGLLLPLPLLLLLPPQPALALDPGLQPGNFSADEAGAQLFAQSYNSSAEQVLFQSVAASWAHDTNITAENARRQEEAALLSQEFAEAWGQKAKELYEPIWQNFTDPQLRRIIGAVRTLGSANLPLAKRQQYNALLSNMSRIYSTAKVCLPNKTATCWSLDPDLTNILASSRSYAMLLFAWEGWHNAAGIPLKPLYEDFTALSNEAYKQDGFTDTGAYWRSWYNSPTFEDDLEHLYQQLEPLYLNLHAFVRRALHRRYGDRYINLRGPIPAHLLGDMWAQSWENIYDMVVPFPDKPNLDVTSTMLQQGWNATHMFRVAEEFFTSLELSPMPPEFWEGSMLEKPADGREVVCHASAWDFYNRKDFRIKQCTRVTMDQLSTVHHEMGHIQYYLQYKDLPVSLRRGANPGFHEAIGDVLALSVSTPEHLHKIGLLDRVTNDTESDINYLLKMALEKIAFLPFGYLVDQWRWGVFSGRTPPSRYNFDWWYLRTKYQGICPPVTRNETHFDAGAKFHVPNVTPYIRYFVSFVLQFQFHEALCKEAGYEGPLHQCDIYRSTKAGAKLRKVLQAGSSRPWQEVLKDMVGLDALDAQPLLKYFQPVTQWLQEQNQQNGEVLGWPEYQWHPPLPDNYPEGIDLVTDEAEASKFVEEYDRTSQVVWNEYAEANWNYNTNITTETSKILLQKNMQIANHTLKYGTQARKFDVNQLQNTTIKRIIKKVQDLERAALPAQELEEYNKILLDMETTYSVATVCHPNGSCLQLEPDLTNVMATSRKYEDLLWAWEGWRDKAGRAILQFYPKYVELINQAARLNGYVDAGDSWRSMYETPSLEQDLERLFQELQPLYLNLHAYVRRALHRHYGAQHINLEGPIPAHLLGNMWAQTWSNIYDLVVPFPSAPSMDTTEAMLKQGWTPRRMFKEADDFFTSLGLLPVPPEFWNKSMLEKPTDGREVVCHASAWDFYNGKDFRIKQCTTVNLEDLVVAHHEMGHIQYFMQYKDLPVALREGANPGFHEAIGDVLALSVSTPKHLHSLNLLSSEGGSDEHDINFLMKMALDKIAFIPFSYLVDQWRWRVFDGSITKENYNQEWWSLRLKYQGLCPPVPRTQGDFDPGAKFHIPSSVPYIRYFVSFIIQFQFHEALCQAAGHTGPLHKCDIYQSKEAGQRLATAMKLGFSRPWPEAMQLITGQPNMSASAMLSYFKPLLDWLRTENELHGEKLGWPQYNWTPNSARSEGPLPDSGRVSFLGLDLDAQQARVGQWLLLFLGIALLVATLGLSQRLFSIRHRSLHRHSHGPQFGSEVELRHS
As a reminder, the Km is the substrate concentration at which the rate is half of its maximum. On to B1, for which the Michaelis constant (Km) is 0.01 µM.
